Results from US7211395 (dated 2007).

Legend:
rat serum albumin = molecular target: T1, rat serum albumin (rat, UniProt P02770); test: FP, PBS pH 7.4
T1 chain: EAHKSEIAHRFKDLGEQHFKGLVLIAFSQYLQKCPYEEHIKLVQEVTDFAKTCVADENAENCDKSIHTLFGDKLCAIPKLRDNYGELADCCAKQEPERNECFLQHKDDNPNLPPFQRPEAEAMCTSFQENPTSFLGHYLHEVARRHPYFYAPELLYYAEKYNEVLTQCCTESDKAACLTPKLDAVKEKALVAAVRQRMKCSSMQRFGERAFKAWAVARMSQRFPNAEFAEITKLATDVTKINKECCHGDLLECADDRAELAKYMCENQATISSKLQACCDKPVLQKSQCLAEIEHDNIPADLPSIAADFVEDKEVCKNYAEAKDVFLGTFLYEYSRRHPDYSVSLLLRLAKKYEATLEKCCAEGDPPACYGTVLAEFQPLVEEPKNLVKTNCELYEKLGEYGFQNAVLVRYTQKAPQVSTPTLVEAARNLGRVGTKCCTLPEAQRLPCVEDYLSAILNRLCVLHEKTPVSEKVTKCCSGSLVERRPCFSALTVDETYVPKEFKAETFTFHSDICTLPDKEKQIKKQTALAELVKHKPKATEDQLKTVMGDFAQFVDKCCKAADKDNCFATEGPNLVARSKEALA

pig serum albumin = molecular target: T2, pig serum albumin (pig, UniProt P08835); test: FP, PBS pH 7.4
T2 chain: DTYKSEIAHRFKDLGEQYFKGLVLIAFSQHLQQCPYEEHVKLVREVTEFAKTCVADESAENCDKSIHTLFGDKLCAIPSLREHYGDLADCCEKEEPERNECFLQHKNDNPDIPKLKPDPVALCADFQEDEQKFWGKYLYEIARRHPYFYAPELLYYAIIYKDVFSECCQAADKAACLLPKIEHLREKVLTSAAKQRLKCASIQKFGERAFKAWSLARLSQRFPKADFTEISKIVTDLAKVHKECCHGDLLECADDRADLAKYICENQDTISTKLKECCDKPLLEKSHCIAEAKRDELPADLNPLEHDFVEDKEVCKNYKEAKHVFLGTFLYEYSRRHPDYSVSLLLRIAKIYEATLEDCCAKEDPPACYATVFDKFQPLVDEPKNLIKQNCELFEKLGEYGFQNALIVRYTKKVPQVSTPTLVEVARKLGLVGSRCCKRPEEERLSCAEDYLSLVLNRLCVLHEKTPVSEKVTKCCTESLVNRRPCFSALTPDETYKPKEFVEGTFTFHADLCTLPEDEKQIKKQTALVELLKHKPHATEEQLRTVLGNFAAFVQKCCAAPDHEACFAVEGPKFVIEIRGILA

mouse serum albumin = mouse serum albumin (mouse, UniProt P07724); test: FP, pH 6.2, no NaCl
mouse serum albumin, sequence (P07724 25-608): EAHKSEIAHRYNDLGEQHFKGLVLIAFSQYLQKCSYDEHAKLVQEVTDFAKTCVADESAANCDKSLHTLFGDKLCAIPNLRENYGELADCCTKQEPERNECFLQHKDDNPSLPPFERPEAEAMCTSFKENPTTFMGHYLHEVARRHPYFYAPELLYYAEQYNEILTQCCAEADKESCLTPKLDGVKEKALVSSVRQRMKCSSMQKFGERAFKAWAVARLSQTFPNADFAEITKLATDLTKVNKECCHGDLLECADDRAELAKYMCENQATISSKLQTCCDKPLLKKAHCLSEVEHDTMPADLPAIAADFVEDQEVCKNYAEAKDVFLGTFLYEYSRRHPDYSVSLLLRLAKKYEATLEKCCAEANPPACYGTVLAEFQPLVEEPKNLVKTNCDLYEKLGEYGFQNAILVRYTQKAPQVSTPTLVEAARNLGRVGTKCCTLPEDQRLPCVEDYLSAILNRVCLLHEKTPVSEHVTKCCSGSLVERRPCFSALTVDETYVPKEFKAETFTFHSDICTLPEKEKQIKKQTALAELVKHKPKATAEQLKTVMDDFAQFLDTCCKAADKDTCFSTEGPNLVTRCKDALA

bovine serum albumin = bovine serum albumin (bovine, UniProt P02769); test: FP, pH 6.2, no NaCl
bovine serum albumin, sequence (P02769 25-607): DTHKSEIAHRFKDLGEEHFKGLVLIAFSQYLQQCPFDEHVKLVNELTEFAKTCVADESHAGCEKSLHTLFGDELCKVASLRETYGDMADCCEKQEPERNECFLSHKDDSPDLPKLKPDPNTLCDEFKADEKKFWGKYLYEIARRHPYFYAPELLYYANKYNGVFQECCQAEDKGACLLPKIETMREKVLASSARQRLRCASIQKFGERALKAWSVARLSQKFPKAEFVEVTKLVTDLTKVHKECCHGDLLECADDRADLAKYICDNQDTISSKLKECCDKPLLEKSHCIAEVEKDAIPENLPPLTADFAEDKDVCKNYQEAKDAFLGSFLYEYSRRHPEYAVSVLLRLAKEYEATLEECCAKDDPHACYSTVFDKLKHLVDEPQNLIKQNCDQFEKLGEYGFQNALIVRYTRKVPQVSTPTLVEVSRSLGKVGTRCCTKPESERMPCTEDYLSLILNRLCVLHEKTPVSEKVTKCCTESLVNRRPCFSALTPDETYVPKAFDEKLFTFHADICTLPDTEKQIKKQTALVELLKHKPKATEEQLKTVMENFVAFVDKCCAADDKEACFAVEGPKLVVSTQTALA

chicken ovalbumin = molecular target: T3, chicken ovalbumin (chicken, UniProt P01012); test: FP, pH 6.2, no NaCl
T3 chain: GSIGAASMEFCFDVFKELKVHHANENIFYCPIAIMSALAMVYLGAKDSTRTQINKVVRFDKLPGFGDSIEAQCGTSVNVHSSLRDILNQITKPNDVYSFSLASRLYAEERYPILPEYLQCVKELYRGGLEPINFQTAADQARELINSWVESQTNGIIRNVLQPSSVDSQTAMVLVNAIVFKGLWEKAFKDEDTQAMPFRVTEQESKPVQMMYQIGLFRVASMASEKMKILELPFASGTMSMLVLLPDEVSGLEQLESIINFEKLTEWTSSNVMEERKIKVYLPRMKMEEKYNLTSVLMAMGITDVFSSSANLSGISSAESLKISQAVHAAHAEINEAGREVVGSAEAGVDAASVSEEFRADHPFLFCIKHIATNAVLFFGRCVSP

[1] = molecular target: T4, human serum albumin (HSA) (human, UniProt P02768); test: FP, pH 6.2, 0.14 M NaCl
[2] = molecular target: T4, human serum albumin (HSA); test: FP, pH 7.4, 0.14 M NaCl, 0.1% caprylate

B1: DX-321 (peptide)
chain: AEGTGDRNMCKFSWIRSPAFCARADPEXK
modifications: disulfide cyclic, N-acetyl, C-amide, X = 6-aminohexanoic acid, fluorescein on Lys
- Kd (rat serum albumin): 117 µM
- Kd (pig serum albumin): > 200 µM
- Kd (mouse serum albumin): > 200 µM
- Kd (bovine serum albumin): 21 µM
- Kd (chicken ovalbumin): > 200 µM
- Kd [1]: 9 µM
- Kd [2]: 75 µM
